# Assay results reported in patent US7462695B2, “Insect chymotrypsin and inhibitors thereof” (Hexima Limited, priority 2003, dated 2008).
# B1: Bowman Birk: soybean Bowman Birk inhibitor, purchased from Sigma-Aldrich (protein, UniProt P01055 40-110, looked up)
# Bowman-Birk type proteinase …: DDESSKPCCDQCACTKSNPPQCRCSDMRLNSCHSACKSCICALSYPAQCFCVDITDFCYEPCKPSEDDKEN
# Legend:
# bovine chymotrypsin = bovine chymotrypsin (Bos taurus, UniProt P00766); test: Inhibition of bovine chymotrypsin; assay type: biochemical; conditions: 100 ng bovine chymotrypsin, pH 10; for % Inhibition BC: at maximum concentration tested
# Protocol: (§1) Several proteinase inhibitors were tested for their ability to inhibit the activity of the insensitive chymotrypsins. The buffer used for all assays was 500 mM CAPS, 75 mM NaCl, 2.5 mM MgCl2 at pH 10.
# [1] = biological target: NaPI-insensitive chymotrypsins from H. punctigera (Helicoverpa punctigera, UniProt A0PGE0); test: Inhibition of NaPI-insensitive chymotrypsin (gut extract depleted of trypsins and NaPI-sensitive chymotrypsins); assay type: biochemical; conditions: pH 10, 30 min preincubation at 30° C.; for % Inhibition Insensitive: at maximum concentration tested
# Chain of NaPI-insensitive chymotrypsins from H. punctigera (A0PGE0 entry or part of it): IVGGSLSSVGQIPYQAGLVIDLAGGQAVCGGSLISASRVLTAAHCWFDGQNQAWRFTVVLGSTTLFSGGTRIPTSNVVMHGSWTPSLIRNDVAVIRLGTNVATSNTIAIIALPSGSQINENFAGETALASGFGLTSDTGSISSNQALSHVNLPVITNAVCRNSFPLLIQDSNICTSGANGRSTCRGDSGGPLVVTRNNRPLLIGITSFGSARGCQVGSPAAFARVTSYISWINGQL
# Protocol: The midgut was dissected from 100 fourth instar larvae and buffer soluble extracts were prepared. The gut extract was depleted of NaPI-sensitive proteases by passage through an affinity column composed of immobilized NAPI protein (C1, C2, T1-T4). […] This preparation of unbound material was used to study the pH optimum, substrate preference and effect of a range of proteinase inhibitors on the activity of the NaPI-insensitive proteinase. […] The best substrate for enzyme assays was determined using seven different commercial substrates.
# as §1
# [2] = tested on: chymotrypsin activity in unfractionated gut extracts from H. punctigera; test: Chymotrypsin activity in unfractionated gut extracts with proteinase inhibitors (FIG. 3); assay type: biochemical, Helicoverpa punctigera; conditions: larvae raised on haricot bean diet without added proteinase inhibitors; substrate SAAPFpNA
# Protocol: FIG. 3 is a graphical representation showing the effect of various proteinase inhibitors on the chymotrypsin activity in unfractionated gut extracts from H. punctigera. Proteinase inhibitors were mixed with 1 μg of protein from an unfractionated gut extract before incubation with the chymotrypsin substrate N-succinyl-Ala-Ala-Pro-Phe-p-nitroanilide. Inhibition is expressed as a percentage of the total activity in the control samples.
# Fourth-instar larvae were killed using ethyl-acetate prior the removal of individual gut which were then homogenized in a mortar and pestle in an equal amount [(w/v)] of 50 mM Tris-HCl, pH 8.0 containing 100 μM benzamidine. Insoluble material was removed by centrifugation at 20,000 rpm for 15 min at 4° C. and total protein concentration determined using the Bradford method (Bradford, Anal Biochem 72: 248-254, 1976) with reagents from BioRad and BSA as a standard.
# Unfractionated gut extract containing approximately 1 μg of buffer soluble protein was added to 10 μL CAPS buffer (0.5 M, 3-[cyclohexylamino]-1-propane-sulfonic acid, pH 10) and made to a final volume of 100 μL in individual wells of a 96 well microtiter plate. Proteinase inhibitors were added over a range of concentrations and incubated for 15 min at 25° C. Bovine chymotrypsin (100 ng) was used as a positive control, both for activity and inhibition. The chromogenic artificial substrate SAAPFpNA (N-Succinyl-L-alanyl-L-alanyl-L-prolyl-L-phenylalanine 4-nitroanilide) was then added to a final concentration of 1 mM and hydrolysis of the substrate was measured at 405 nm using the SpectraMax 250 microtiter plate reader (Molecular Devices).
Molecule,IC50 (bovine chymotrypsin) [µM],% Inhibition BC (bovine chymotrypsin) [%],% Inhibition Insensitive [1] [%],IC50 [1] [µM],inhibition of gut chymotrypsin activity (in words) [2]
"CC(=O)N[C@@H](CC(C)C)C(=O)N[C@@H](CC(C)C)C(=O)N[C@H](C=O)CCCNC(=N)N [Leupeptin, reference compound]",2400,52,,,
"O=S(=O)(F)Cc1ccccc1 [PMSF, phenylmethyl sulphonyl fluoride, reference compound]",,,100,,
B1,0.06,100,100,0.24,failed to abolish all the chymotrysin activity
